Results taken from the domain aggregation screens of Martell et al. (2025).

Assay: soluble fraction after stress (log2 fold change); higher = more stays soluble; pooled small domains, quantitative proteomics
Details: stress: 75 degC
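Note: 20 min heating vs room temperature control held 20 min.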

Sequence	soluble fraction (log2)
HMDLLAESLTRREAEVAALAARGLTNRAIAELFGLSVRTAETHLHRAMGKLGANRREDLLLHADRLDPG	-1.41
HMDLLESLSAREREVVHLASRGLVNKLIARELGITERTVKAHLSSAFEKLHIKDRVHLALLVNGI	-2.46
HMDLLKANNLSQINVDKLTDEEILKYSQQLKQSGLTESQAEQIAIARGMPATEIAKLKQRLISLTNMQ	0.118
HMDLLVWRVADEDAGERIDKLVVDSLDDVSRTAVQQWIKDGLVTVNGKTVKPNYKAAAGDEVAVSVPEPE	0.239
HMDLMKKTLTKEMLLIDFMKQQFPDSSTNKLRKMLSSGRVKINNLITHKAKSQLKLGDIFELANKPHD	-1.31
HMDLPGIVTETDRQRADLAARIGAAKVEAVLAGGARSVEADEDFDADTRRELHQFLTRMARRAFLEER	0.1
HMDLPSSETLKVKLNLAKAYVTIEDFGAARRALDEVLSVSSLVDPDLTIQAKSLLAEIDQRS	-0.352
HMDLQAAWLQTVRHLLAHTEDVGDRFAEEARRIHYGEEPHRGIRGQATPEERLALREEGIETMSIPV	-0.919
HMDLQHQLTPRLKRLRLSGILETLEVRNQQAIAEKWSYVEFLTRLAEDEVERRDHKQLTLRLR	-0.529
HMDLSYPFTTVTTDNVNMRRSASSSSVVLERIDKGDSITVLGTSGNYYKVSYNDRTGYVLKQYVDVSAATT	-0.254
HMDLTPEEQMDLYRLLDSLPTEERTYLILHYFEERSFPEMAEILSMPEAKLKSRFYRILHRLRAHL	-2.74
HMDLTSDANLKEAKDQILNLLNDGKRHHVTEINKILLPPVQVQEALRFLIHEETVRVDASFLF	-0.104
HMDLVESYDLKIIYTSELINLLIDSSRLEEALNLFKDLKDEIDDVENLGFSAKNNLDYMESKLLHLG	-1.94
HMDLYIILGLERSATLSDVRRAYRRLARKYHPGINPGDRNSASVFTRVSEAYQVLSDPEQRRRYDSR	-2.84
HMDMDRRALLLALINDRYHASVAEFARAINKAPAQVHQWLSGNRALGNAGARDIEIRLNLAQGYFDH	-2.16
HMDMQMPIMNGLEFLERINLTLDDNFSIIVLTGKIEDKSIEKSFELGINAYLRKPFNIYALLGIVRQN	-0.135
HMDMSDFEVVRDMYLTGKVWNAGDIVEAKGITGEVVRKGTNYLSFVDKNGKVHKAWLHEIEL	-0.197
HMDNAILQELYDYYKEDPSLSQSELIISMLTRIQEAVGYVSKDVQEEVARLAGVNRGYVAAIIKNLPHL	-1.17
HMDNEYDKVYQAALSKLEGYPRSSITTAVIKDVVAQTIKYFEIKNFGYEDTIINQLQSAFTVKSSS	-0.0883
HMDNLSESQIKAYSSILSRTHEISDLAENKDYLAFSLWIANILRDPQSVREETAKRVFSALHTNTDFK	-0.984
HMDNMFMPPVNGWDVRQALQKLQNEMGLQVKMEYSPSETITEGYVISYTPIDGMKVEKGDEVTLVISTGPE	-0.0359
HMDNMTEMQKAVTALIEKSGGSIDNLSVIYDHLKKKYPSFDLKDYGYSRFSSFLRSMENIMVRGNAVTLRS	-0.211
HMDNPPDRAEIEQMLKDAGLTPEADAMAALSDLARTLDPGDFRQTLEKITLYKLGDSTPIGLDDIAAGAP	0.0465
HMDNQSIVRINDGDGAWRQRLGEHFGHLPRDRKRGEIVLQVDAADWRWLQTQGYAPRFDAALSAQLQTTL	-0.479
HMDNVLGKSGKVIFVNEEINSYGRAFIPGHGEWNIRTKSDQNIHINDGIKVIERDGITLVVEL	-1.26
HMDNVQLRNFAIKATEASIIYLDQEQRNFFWYNNNKKLMTVPFDENPYSAFAAYLKTDEGSEVYKAIEKKF	-1.97

Sequence	soluble fraction (log2)
HMDNWAALLSEREVQVSRLVANGASNKEIADHLAITERTVKAHLTAVFEKLGVRDRLQLSLRVNGL	-3.94
HMDPALSPAEQKIWDLLAAGETHIDDLVRASGLPVATVNSALVMMEMKEVISQVAAKTYRRNRRN	-1.3
HMDPEARRRAILNAAIDVIVEKGAAALTHRAVAARAGVSLGSTTKYFSSIEDLRENAMDALVREMD	-0.496
HMDPEEQIQSREIWEAVERALDGMQEKGRRVVIALLEGQTQLEVSRAAGISQPLISYYLKSFRTKVRTELG	-0.73
HMDPEIADAVNTIKKYLESHYSEVITRKKIEELVHLNQDHINREFKKQTGYTLMEYVQHYRILMAKKMLRV	-0.576
HMDPEQLKIAINTKMPFGKYSGRPLLLLPEPYLVWFKQQGFPDSKLGSQLAMMYEVKLNGLEQMLMPLL	-0.665
HMDPERLDQLQNPDPAVRREAIIALGRSKDLAALPELAKVYKNDPVPELRELARQAGRYIQQENRP	0.00398
HMDPFVILGISKDSSQSEILEAYKTKRAYYQEHVFDEGDQGAQAARMLGQLDDAYQQAMELSHE	0.0281
HMDPKISWESDEKLSANIGHYENSIKPLMGNKYLIELSQLKDKIESHPWVARATIKRIFWNKIHIQLESHD	-0.0642
HMDPKWSHVRRLLDDENPIVRKALTEELIRSPEEGLAFLEQVIREPDHLLAKHAHNLLSELGWV	0.192
HMDPLGHVIKKKRLQLGMTLRDLAAKAGVHHATIDRIETDQFKVVDPSTLVKIAEALHLDQLYLLSLN	-0.666
HMDPLPDEVQEVIDMVDGFKAMDELSEADKADVKAAYDAYNALSAEHKAMVPEHIVTFLNRAYDKLFD	0.159
HMDPPVDLTPREQQVLSRIALGMSDKAIAAELGVSHQTVRNHVARIYAKIKVHSRSQAIVWAREKGIP	-2.36
HMDPSKMKIDELEIATRTATALADGGIKSVAGLIRKSASALKELDGVGDKAIAEITEALEKLGLELKG	0.106
HMDPSWVPVFNNLRDAILSHQLLPGTRLAEDELSNIYGLGRTVIRSALGALTHEGLLTHIPNRGVHVAKP	-1.16
HMDPTIAAIRKKLKNWTIVEVHMTREELEQAVIDGKVDVFLSSAGFYRRLVRFGARDLATAMSPAYPD	-0.68
HMDPTYYFNLYPNPSKDEVSLFTNFTGKINIEILDLAGKSILSDNPISTISLVSLKEGLYLVKVKS	-0.178
HMDPYLSGLLQKLAETDKKISFTRLRSEDLDGESREAIYEFIEKYSGRFGVRWLLNEFGLSPSVYYNYLHS	-0.727
HMDQDLGFLINKYFELGKDYNTLVEIYEKIKEYIASIDKKMLEYTKNFTIEQLKKWLDDGTINNIILTLG	-0.122
HMDQEDAYMQVRQVFDTLLVSELSKRIFAWRFFEGKSFAEWPGAESQKFLYDTFNRILLIISAKIRRKNA	-0.0464
HMDQHERQQLLIHIAGGEREALAELYQRTRSAVYGLALSYLKNAHDAQDLTRDVYVQVWDRA	-0.0158
HMDQQTKFKTALAALAASAETKDRKLTKADVKEFLEDMDLGEEQMKLVYAYLASKHIHVEGAE	≥ 1.04
HMDQSIDADIINLNFSKNIIKIEENVYYKNNNAKVNADKIEINIETKKLKISMNEQEDEVEIFAK	0.552
HMDQTIFFGQQKAINNLSTDAGLSATELDEYLKKRYKRPLYQLTQAEGAEIIKGFQDGALSRSSILDYTK	0.0434
HMDRKFFFNEQYEDYINSDLKVKFMNDSGSKKSFQGELTKVTPSDLFLESEKESVKVPFSSIIQANLI	-0.197
HMDRLTISTLGNGLFRVNGAEAEATVYNLSGNVVKVVPADEVIDLSSLAKGVYIIHVDGEAFKVI	-1.13

Sequence	soluble fraction (log2)
HMDRMFQPETWSKIYQWVMNDPQVPDKEDVLALIRRHFGNFEKLIKLLHYLDGGKPYAYLSEH	-0.473
HMDRSLYVGDAVGFDSARGLMEIEVKNKFSVVAVSLKKKPSGNFITPLLRMEKKKGEAVTVAPGSGHR	-0.514
HMDRSQRDQEQAQLIRLVQQAFDDSGQRYGAEKIRITLAEGGIRVSTKRIAAIMQELDLRSI	-2.41
HMDRSRAEIDLGHVETAIRTLAEGGMVQEYAIGGRSLKRYKMGELLQLKAELENEINMERRKEKMRQ	0.212
HMDRVDGWLHDGKLYLRVVDYKTGKKSFDLAELRYGLGLQMLLYLFTLKEEGQMLFGGHEIVPAGVL	-0.514
HMDRVSEITLTRLRDYAADGQVRTATLTHRTNVVTGTLRDGRRFSAGVPPMYGDELTTFLLDNGVRVDSDN	-0.41
HMDSDMGQQLKTLLTVGTFMSSKELKAIAQQLGLKKPTDLKEWVELESGTQRIEGKPTKGYWIKMNDINN	-0.367
HMDSGINVWASAEGLTITADKDTTVYVYDIYGRTIHTSEVKAGTSDIAINTKGIVIVKANGYTKKII	-1.77
HMDSILSIVGGEESYKALLAWAENNISQQELQQLETILKSGNVPAIKRVLVTLMNRFNQAQS	-0.114
HMDSINGEASISRELHGTRFDQAAAILFPEFSRSRLQAWIGAGALTLDGQTARAKDKVTQGQHLVLAAAVE	-0.54
HMDSINIDEETAKLGPNAPQIIDGIKKWGQGLVAKGVWSDEDFDEFKVFAATSSGINALNKIRKYY	0.188
HMDSKYLRIFSTLIDEMEKMSPGEQLQSERELSQRFQVSPMTVRRALHKLSTEGYTSAIPGKGTFVRK	-0.707
HMDSLELADEVGRVSEALQELRPHQREVLELSLVHGRSHQQISEKTGLALGTVKSHARRGLMRVREMLGV	-0.381
HMDSLIEYENERSLRRLINENLSDYERTVWWLYYAGADAAHIAEQTGRSKRSAENAITRVRRKLRALITQS	-1.33
HMDSNISVSEALEMVDKGSVKEIIVEGEKLYITNQDGKQYTSSKEVGVSLIELMKDSGIDPIKSDVNIIVK	0.463
HMDSRVRHAVLTTLLGKRIVDDLVEKGELPGTPLVLATAPGLDRDLEQLIAQRVVTALLTTV	-0.0018
HMDSSALEPIVDQIIADNPKQVEQFQAGKTKVLGFFVGQVMKQTDGTANPKQVNELVAARLKSA	0.0418
HMDSTDSIIHYVRAHRSLEVKNLSFAEARFKKVVELEPNFARGWLGLGEVSILKNNFENASIYLDKALE	-0.282
HMDSTLTNEIYNELYRAITHQELKPGQNLTLTMLKKQFNVSHTPIREALTRLSADGLVTYHPNKGMKVT	-0.444
HMDSTTHALALVRTLPRDQAEAVLLRVVADLDYADVAEIMGRSPGAVRVLVHRGLRRLEQELATRRT	-0.574
HMDSVEYRVITGDDVNFRKGPSTDYASLGKLNKGYKVEYISETNSWSKVKYNGQTGYVYSKYVAQT	-0.155
HMDSVTVPDISGYSPKAAEDSINNAGLKINEQGLSGSGDGQVVERTSPSAGSKVKKGDSVTVYYSKA	0.0423
HMDTDVFLMDLRGESRDYAEEVLINNNLEVKVIILPFSKRHYPGKVVEMRPSPFTKVKKGRIITLSVAGN	-3.73
HMDTDWDVSGVTPDQYRLLFSVLGGLAGVKDVGLNPDGLRIIHTPEALPSIEKAFQANGLKLKRNVD	-0.0943
HMDTETLIDKYQLNASEAAVLRFMDKNRDSLRDLGIRDVARASYVSTATIVNMAKKIGYSGYSELVFAYGS	-3.69
